Reference: US20160193299A1, “MODIFIED NUCLEOSIDE, NUCLEOTIDE, AND NUCLEIC ACID COMPOSITIONS” (Moderna Therapeutics, Inc., priority 2011, published 2016)

Assays:
red blood cell (RBC) = experiment: Example 22 non-human primate study, red blood cell (RBC) count; format: in vivo, cynomolgus monkey
Description: (§1) LNP formulations, shown in Table 31 (above), were administered to non-human primates (NHP) (cynomolgus monkey) (n=2) as intravenous injection (IV). The NHP were administered a single modified mRNA IV dose of 0.5 mg/kg, 0.05 mg/kg or 0.005 mg/kg of G-CSF or EPO in a dose volume of 0.5 mL/kg. The NHPs were bled before dosing with the modified mRNA LNP formulations to determine protein expression in the serum and a baseline complete blood count. After administration with the G-CSF modified mRNA formulation the NHP were bled at 8, 24, 48 and 72 hours to determined protein expression. After administration with the EPO modified mRNA formulation the NHP were bled at 8, 24, 48, 72 hours and 7 days to determined protein expression.

[1] = system: aspartate transaminase (AST); experiment: Example 22 non-human primate study, serum chemistry aspartate transaminase (AST); format: in vivo, cynomolgus monkey
Description: as §1

human G-CSF = experiment: Example 42A saline formulation IM, serum human G-CSF; format: in vivo, mice; conditions: G-CSF group: human G-CSF in mouse serum, IM 100 ug, 13 hours
Description: The mice were bled at 13 hours after the injection to determine the concentration of the human polypeptide in serum in pg/mL (G-CSF groups measured human G-CSF in mouse serum and EPO groups measured human EPO in mouse serum).

[2] = Female NHP, 0.005 mg/kg, 7 days
[3] = Female NHP, 0.005 mg/kg, Pre-dose
[4] = Female NHP, 0.05 mg/kg, Pre-dose
[5] = Female NHP, 0.5 mg/kg, Pre-dose
[6] = Male NHP, 0.005 mg/kg, Pre-dose

B1: G-CSF: human G-CSF mRNA SEQ ID NO: 6, polyA ~160 nt, Cap1, fully modified with 5-methylcytosine and pseudouridine (nucleic acid, listed as Homo sapiens)
chain: GGGAAAUAAGAGAGAAAAGAAGAGUAAGAAGAAAUAUAAGAGCCACCAUGGCCGGUCCCGCGACCCAAAGCCCCAUGAAACUUAUGGCCCUGCAGUUGCUGCUUUGGCACUCGGCCCUCUGGACAGUCCAAGAAGCGACUCCUCUCGGACCUGCCUCAUCGUUGCCGCAGUCAUUCCUUUUGAAGUGUCUGGAGCAGGUGCGAAAGAUUCAGGGCGAUGGAGCCGCACUCCAAGAGAAGCUCUGCGCGACAUACAAACUUUGCCAUCCCGAGGAGCUCGUACUGCUCGGGCACAGCUUGGGGAUUCCCUGGGCUCCUCUCUCGUCCUGUCCGUCGCAGGCUUUGCAGUUGGCAGGGUGCCUUUCCCAGCUCCACUCCGGUUUGUUCUUGUAUCAGGGACUGCUGCAAGCCCUUGAGGGAAUCUCGCCAGAAUUGGGCCCGACGCUGGACACGUUGCAGCUCGACGUGGCGGAUUUCGCAACAACCAUCUGGCAGCAGAUGGAGGAACUGGGGAUGGCACCCGCGCUGCAGCCCACGCAGGGGGCAAUGCCGGCCUUUGCGUCCGCGUUUCAGCGCAGGGCGGGUGGAGUCCUCGUAGCGAGCCACCUUCAAUCAUUUUUGGAAGUCUCGUACCGGGUGCUGAGACAUCUUGCGCAGCCGUGAAGCGCUGCCUUCUGCGGGGCUUGCCUUCUGGCCAUGCCCUUCUUCUCUCCCUUGCACCUGUACCUCUUGGUCUUUGAAUAAAGCCUGAGUAGGAAG
modifications: polyA ~160, Cap1, 5mC/pseudouridine modified
- RBC (red blood cell (RBC); [2]): 5.34 10^12/L
- RBC (red blood cell (RBC); [3]): 5.36 10^12/L
- RBC (red blood cell (RBC); Female NHP, 0.05 mg/kg, 14/18 days): 5.26 10^12/L
- RBC (red blood cell (RBC); Female NHP, 0.05 mg/kg, 24 hours): 5.08 10^12/L
- RBC (red blood cell (RBC); Female NHP, 0.05 mg/kg, 3 days): 5.04 10^12/L
- RBC (red blood cell (RBC); Female NHP, 0.05 mg/kg, 7 days): 5.05 10^12/L
- RBC (red blood cell (RBC); [4]): 5.64 10^12/L
- RBC (red blood cell (RBC); Female NHP, 0.5 mg/kg, 14/18 days): 4.92 10^12/L
- RBC (red blood cell (RBC); Female NHP, 0.5 mg/kg, 24 hours): 4.96 10^12/L
- RBC (red blood cell (RBC); Female NHP, 0.5 mg/kg, 3 days): 4.97 10^12/L
- RBC (red blood cell (RBC); Female NHP, 0.5 mg/kg, 7 days): 5.04 10^12/L
- RBC (red blood cell (RBC); [5]): 5.57 10^12/L
- RBC (red blood cell (RBC); Male NHP, 0.005 mg/kg, 14/18 days): 5.37 10^12/L
- RBC (red blood cell (RBC); Male NHP, 0.005 mg/kg, 24 hours): 5.34 10^12/L
- RBC (red blood cell (RBC); Male NHP, 0.005 mg/kg, 3 days): 5.32 10^12/L
- RBC (red blood cell (RBC); Male NHP, 0.005 mg/kg, 7 days): 5.25 10^12/L
- RBC (red blood cell (RBC); [6]): 5.67 10^12/L
- RBC (red blood cell (RBC); Male NHP, 0.05 mg/kg, 14/18 days): 5.43 10^12/L
- RBC (red blood cell (RBC); Male NHP, 0.05 mg/kg, 24 hours): 4.96 10^12/L
- RBC (red blood cell (RBC); Male NHP, 0.05 mg/kg, 3 days): 5.13 10^12/L
- RBC (red blood cell (RBC); Male NHP, 0.05 mg/kg, 7 days): 5.17 10^12/L
- RBC (red blood cell (RBC); Male NHP, 0.05 mg/kg, Pre-dose): 5.68 10^12/L
- RBC (red blood cell (RBC); Male NHP, 0.5 mg/kg, 14/18 days): 4.21 10^12/L
- RBC (red blood cell (RBC); Male NHP, 0.5 mg/kg, 24 hours): 4.66 10^12/L
- RBC (red blood cell (RBC); Male NHP, 0.5 mg/kg, 3 days): 4.91 10^12/L
- RBC (red blood cell (RBC); Male NHP, 0.5 mg/kg, 7 days): 4.8 10^12/L
- RBC (red blood cell (RBC); Male NHP, 0.5 mg/kg, Pre-dose): 5.57 10^12/L
- AST ([1]; Female NHP, 0.005 mg/kg, 2 days): 34 U/L
- AST ([1]; Female NHP, 0.005 mg/kg, 4 days): 36 U/L
- AST [1, 2]: 31 U/L
- AST ([1]; Female NHP, 0.005 mg/kg, 14 days): 20 U/L
- AST [1, 3]: 54 U/L
- AST ([1]; Female NHP, 0.05 mg/kg, 2 days): 34 U/L
- AST ([1]; Female NHP, 0.05 mg/kg, 4 days): 42 U/L
- AST ([1]; Female NHP, 0.05 mg/kg, 7 days): 52 U/L
- AST ([1]; Female NHP, 0.05 mg/kg, 14 days): 20 U/L
- AST [1, 4]: 33 U/L
- AST ([1]; Female NHP, 0.5 mg/kg, 2 days): 294 U/L
- AST ([1]; Female NHP, 0.5 mg/kg, 4 days): 63 U/L
- AST ([1]; Female NHP, 0.5 mg/kg, 7 days): 68 U/L
- AST ([1]; Female NHP, 0.5 mg/kg, 14 days): 67 U/L
- AST [1, 5]: 47 U/L
- AST ([1]; Male NHP, 0.005 mg/kg, 2 days): 70 U/L
- AST ([1]; Male NHP, 0.005 mg/kg, 4 days): 39 U/L
- AST ([1]; Male NHP, 0.005 mg/kg, 7 days): 28 U/L
- AST ([1]; Male NHP, 0.005 mg/kg, 14 days): 39 U/L
- AST [1, 6]: 35 U/L
- AST ([1]; Male NHP, 0.05 mg/kg, 2 days): 95 U/L
- AST ([1]; Male NHP, 0.05 mg/kg, 4 days): 69 U/L
- AST ([1]; Male NHP, 0.05 mg/kg, 7 days): 62 U/L
- AST ([1]; Male NHP, 0.05 mg/kg, 14 days): 59 U/L
- AST ([1]; Male NHP, 0.05 mg/kg, Pre-dose): 99 U/L
- AST ([1]; Male NHP, 0.5 mg/kg, 2 days): 196 U/L
- AST ([1]; Male NHP, 0.5 mg/kg, 4 days): 67 U/L
- AST ([1]; Male NHP, 0.5 mg/kg, 7 days): 53 U/L
- AST ([1]; Male NHP, 0.5 mg/kg, 14 days): 47 U/L
- AST ([1]; Male NHP, 0.5 mg/kg, Pre-dose): 32 U/L
- Average Protein Product (human G-CSF): 19.8 Pg/mL, serum
